Patent US20230407373A1 (priority 2020, published 2023)
Where two headings read alike, the source gives them in different places.

Tested on: HCoV-OC43 gRNA and sgRNA
Format: binding
Settings: for target (unweighted spectral count): OC43 Probe II, infected cells; for target (unweighted spectral count) / target (unweighted spectral count, OC43 Probe II capture): tested against no-probe control; for target (unweighted spectral count, OC43 Probe II capture): FDR<10%

B1: HNANPA3 (protein, UniProt P51991 1-378, looked up)
Heterogeneous nuclear …: MEVKPPPGRPQPDSGRRRRRRGEEGHDPKEPEQLRKLFIGGLSFETTDDSLREHFEKWGTLTDCVVMRDPQTKRSRGFGFVTYSCVEEVDAAMCARPHKVDGRVVEPKRAVSREDSVKPGAHLTVKKIFVGGIKEDTEEYNLRDYFEKYGKIETIEVMEDRQSGKKRGFAFVTFDDHDTVDKIVVQKYHTINGHNCEVKKALSKQEMQSAGSQRGRGGGSGNFMGRGGNFGGGGGNFGRGGNFGGRGGYGGGGGGSRGSYGGGDGGYNGFGGDGGNYGGGPGYSSRGGYGGGGPGYGNQGGGYGGGGGYDGYNEGGNFGGGNYGGGGNYNDFGNYSGQQQSNYGPMKGGSFGGRSSGSPYGGGYGSGGGSGGYGSRRF
target (unweighted spectral count) (12 hpi (type n_12_v)): 14

B2: HNANPA0 (protein, UniProt Q13151 1-305, looked up)
Heterogeneous nuclear …: MENSQLCKLFIGGLNVQTSESGLRGHFEAFGTLTDCVVVVNPQTKRSRCFGFVTYSNVEEADAAMAASPHAVDGNTVELKRAVSREDSARPGAHAKVKKLFVGGLKGDVAEGDLIEHFSQFGTVEKAEIIADKQSGKKRGFGFVYFQNHDAADKAAVVKFHPIQGHRVEVKKAVPKEDIYSGGGGGGSRSSRGGRGGRGRGGGRDQNGLSKGGGGGYNSYGGYGGGGGGGYNAYGGGGGGSSYGGSDYGNGFGGFGSYSQHQSSYGPMKSGGGGGGGGSSWGGRSNSGPYRGGYGGGGGYGGSSF
target (unweighted spectral count) (12 hpi (type n_12_v)): 5
target (unweighted spectral count) (24 hpi (type n_24_v)): 7

B3: DSG1 (protein, UniProt Q02413 50-1049, looked up)
Desmoglein-1: EWIKFAAACREGEDNSKRNPIAKIHSDCAANQQVTYRISGVGIDQPPYGIFVINQKTGEINITSIVDREVTPFFIIYCRALNSMGQDLERPLELRVRVLDINDNPPVFSMATFAGQIEENSNANTLVMILNATDADEPNNLNSKIAFKIIRQEPSDSPMFIINRNTGEIRTMNNFLDREQYGQYALAVRGSDRDGGADGMSAECECNIKILDVNDNIPYMEQSSYTIEIQENTLNSNLLEIRVIDLDEEFSANWMAVIFFISGNEGNWFEIEMNERTNVGILKVVKPLDYEAMQSLQLSIGVRNKAEFHHSIMSQYKLKASAISVTVLNVIEGPVFRPGSKTYVVTGNMGSNDKVGDFVATDLDTGRPSTTVRYVMGNNPADLLAVDSRTGKLTLKNKVTKEQYNMLGGKYQGTILSIDDNLQRTCTGTININIQSFGNDDRTNTEPNTKITTNTGRQESTSSTNYDTSTTSTDSSQVYSSEPGNGAKDLLSDNVHFGPAGIGLLIMGFLVLGLVPFLMICCDCGGAPRSAAGFEPVPECSDGAIHSWAVEGPQPEPRDITTVIPQIPPDNANIIECIDNSGVYTNEYGGREMQDLGGGERMTGFELTEGVKTSGMPEICQEYSGTLRRNSMRECREGGLNMNFMESYFCQKAYAYADEDEGRPSNDCLLIYDIEGVGSPAGSVGCCSFIGEDLDDSFLDTLGPKFKKLADISLGKESYPDLDPSWPPQSTEPVCLPQETEPVVSGHPPISPHFGTTTVISESTYPSGPGVLHPKPILDPLGYGNVTVTESYTTSDTLKPSVHVHDNRPASNVVVTERVVGPISGADLHGMLEMPDLRDGSNVIVTERVIAPSSSLPTSLTIHHPRESSNVVVTERVIQPTSGMIGSLSMHPELANAHNVIVTERVVSGAGVTGISGTTGISGGIGSSGLVGTSMGAGSGALSGAGISGGGIGLSSLGGTASIGHMRSSSDHHFNQTIGSASPSTARSRITKYSTVQYSK
target (unweighted spectral count) (24 hpi (type n_24_v)): 8

B4: DRX30 (protein, UniProt Q7L2E3 1-1194, looked up)
ATP-dependent RNA helicase …: MFSLDSFRKDRAQHRQRQCKLPPPRLPPMCVNPTPGGTISRASRDLLKEFPQPKNLLNSVIGRALGISHAKDKLVYVHTNGPKKKKVTLHIKWPKSVEVEGYGSKKIDAERQAAAAACQLFKGWGLLGPRNELFDAAKYRVLADRFGSPADSWWRPEPTMPPTSWRQLNPESIRPGGPGGLSRSLGREEEEDEEEELEEGTIDVTDFLSMTQQDSHAPLRDSRGSSFEMTDDDSAIRALTQFPLPKNLLAKVIQIATSSSTAKNLMQFHTVGTKTKLSTLTLLWPCPMTFVAKGRRKAEAENKAAALACKKLKSLGLVDRNNEPLTHAMYNLASLRELGETQRRPCTIQVPEPILRKIETFLNHYPVESSWIAPELRLQSDDILPLGKDSGPLSDPITGKPYVPLLEAEEVRLSQSLLELWRRRGPVWQEAPQLPVDPHRDTILNAIEQHPVVVISGDTGCGKTTRIPQLLLERYVTEGRGARCNVIITQPRRISAVSVAQRVSHELGPSLRRNVGFQVRLESKPPSRGGALLFCTVGILLRKLQSNPSLEGVSHVIVDEVHERDVNTDFLLILLKGLQRLNPALRLVLMSATGDNERFSRYFGGCPVIKVPGFMYPVKEHYLEDILAKLGKHQYLHRHRHHESEDECALDLDLVTDLVLHIDARGEPGGILCFLPGWQEIKGVQQRLQEALGMHESKYLILPVHSNIPMMDQKAIFQQPPVGVRKIVLATNIAETSITINDIVHVVDSGLHKEERYDLKTKVSCLETVWVSRANVIQRRGRAGRCQSGFAYHLFPRSRLEKMVPFQVPEILRTPLENLVLQAKIHMPEKTAVEFLSKAVDSPNIKAVDEAVILLQEIGVLDQREYLTTLGQRLAHISTDPRLAKAIVLAAIFRCLHPLLVVVSCLTRDPFSSSLQNRAEVDKVKALLSHDSGSDHLAFVRAVAGWEEVLRWQDRSSRENYLEENLLYAPSLRFIHGLIKQFSENIYEAFLVGKPSDCTLASAQCNEYSEEEELVKGVLMAGLYPNLIQVRQGKVTRQGKFKPNSVTYRTKSGNILLHKSTINREATRLRSRWLTYFMAVKSNGSVFVRDSSQVHPLAVLLLTDGDVHIRDDGRRATISLSDSDLLRLEGDSRTVRLLKELRRALGRMVERSLRSELAALPPSVQEEHGQLLALLAELLRGPCGSFDVRKTADD
target (unweighted spectral count) (24 hpi (type n_24_v)): 10

B5: HMGB1 (protein, UniProt P09429 1-215, looked up)
High mobility group protein B1: MGKGDPKKPRGKMSSYAFFVQTCREEHKKKHPDASVNFSEFSKKCSERWKTMSAKEKGKFEDMAKADKARYEREMKTYIPPKGETKKKFKDPNAPKRPPSAFFLFCSEYRPKIKGEHPGLSIGDVAKKLGEMWNNTAADDKQPYEKKAAKLKEKYEKDIAAYRAKGKPDAAKKGVVKAEKSKKKKEEEEDEEDEEDEEEEEDEEDEDEEEDDDDE
target (unweighted spectral count) (12 hpi (type n_12_v)): 7
target (unweighted spectral count) (24 hpi (type n_24_v)): 6

B6: KRT9 (protein, UniProt P35527 1-623, looked up)
Keratin, type I cytoskeletal 9: MSCRQFSSSYLSRSGGGGGGGLGSGGSIRSSYSRFSSSGGGGGGGRFSSSSGYGGGSSRVCGRGGGGSFGYSYGGGSGGGFSASSLGGGFGGGSRGFGGASGGGYSSSGGFGGGFGGGSGGGFGGGYGSGFGGFGGFGGGAGGGDGGILTANEKSTMQELNSRLASYLDKVQALEEANNDLENKIQDWYDKKGPAAIQKNYSPYYNTIDDLKDQIVDLTVGNNKTLLDIDNTRMTLDDFRIKFEMEQNLRQGVDADINGLRQVLDNLTMEKSDLEMQYETLQEELMALKKNHKEEMSQLTGQNSGDVNVEINVAPGKDLTKTLNDMRQEYEQLIAKNRKDIENQYETQITQIEHEVSSSGQEVQSSAKEVTQLRHGVQELEIELQSQLSKKAALEKSLEDTKNRYCGQLQMIQEQISNLEAQITDVRQEIECQNQEYSLLLSIKMRLEKEIETYHNLLEGGQEDFESSGAGKIGLGGRGGSGGSYGRGSRGGSGGSYGGGGSGGGYGGGSGSRGGSGGSYGGGSGSGGGSGGGYGGGSGGGHSGGSGGGHSGGSGGNYGGGSGSGGGSGGGYGGGSGSRGGSGGSHGGGSGFGGESGGSYGGGEEASGSGGGYGGGSGKSSHS
target (unweighted spectral count) (24 hpi (type n_24_v)): 53

B7: KPRP (protein, UniProt Q5T749 1-579, looked up)
Keratinocyte proline-rich …: MCDQQQIQCRLPLQQCCVKGPSFCSSQSPFAQSQVVVQAPCEMQIVDCPASCPVQVCQVSDQAPCQSQTTQVKCQSKTKQVKGQAQCQSKTTQVKGQAASQSQTSSVQSQAPCQSEVSYVQCEASQPVQTCFVECAPVCYTETCYVECPVQNYVPCPAPQPVQMYRGRPAVCQPQGRFSTQCQYQGSYSSCGPQFQSRATCNNYTPQFQLRPSYSSCFPQYRSRTSFSPCVPQCQTQGSYGSFTEQHRSRSTSRCLPPPRRLQLFPRSCSPPRRFEPCSSSYLPLRPSEGFPNYCTPPRRSEPIYNSRCPRRPISSCSQRRGPKCRIEISSPCCPRQVPPQRCPVEIPPIRRRSQSCGPQPSWGASCPELRPHVEPRPLPSFCPPRRLDQCPESPLQRCPPPAPRPRLRPEPCISLEPRPRPLPRQLSEPCLYPEPLPALRPTPRPVPLPRPGQCEIPEPRPCLQPCEHPEPCPRPEPIPLPAPCPSPEPCRETWRSPSPCWGPNPVPYPGDLGCHESSPHRLDTEAPYCGPSSYNQGQESGAGCGPGDVFPERRGQDGHGDQGNAFAGVKGEAKSAYF
target (unweighted spectral count) (24 hpi (type n_24_v)): 15

B8: LMNA (protein, UniProt P02545 1-661, looked up)
Prelamin-A/C: METPSQRRATRSGAQASSTPLSPTRITRLQEKEDLQELNDRLAVYIDRVRSLETENAGLRLRITESEEVVSREVSGIKAAYEAELGDARKTLDSVAKERARLQLELSKVREEFKELKARNTKKEGDLIAAQARLKDLEALLNSKEAALSTALSEKRTLEGELHDLRGQVAKLEAALGEAKKQLQDEMLRRVDAENRLQTMKEELDFQKNIYSEELRETKRRHETRLVEIDNGKQREFESRLADALQELRAQHEDQVEQYKKELEKTYSAKLDNARQSAERNSNLVGAAHEELQQSRIRIDSLSAQLSQLQKQLAAKEAKLRDLEDSLARERDTSRRLLAEKEREMAEMRARMQQQLDEYQELLDIKLALDMEIHAYRKLLEGEEERLRLSPSPTSQRSRGRASSHSSQTQGGGSVTKKRKLESTESRSSFSQHARTSGRVAVEEVDEEGKFVRLRNKSNEDQSMGNWQIKRQNGDDPLLTYRFPPKFTLKAGQVVTIWAAGAGATHSPPTDLVWKAQNTWGCGNSLRTALINSTGEEVAMRKLVRSVTVVEDDEDEDGDDLLHHHHGSHCSSSGDPAEYNLRSRTVLCGTCGQPADKASASGSGAQVGGPISSGSSASSVTVTRSYRSVGGSGGGSFGDNLVTRSYLLGNSSPRTQSPQNC
target (unweighted spectral count) (12 hpi (type n_12_v)): 7
target (unweighted spectral count) (24 hpi (type n_24_v)): 8

B9: MTDH (protein, UniProt Q86UE4 1-582, looked up)
Protein LYRIC: MAARSWQDELAQQAEEGSARLREMLSVGLGFLRTELGLDLGLEPKRYPGWVILVGTGALGLLLLFLLGYGWAAACAGARKKRRSPPRKREEAAAVPAAAPDDLALLKNLRSEEQKKKNRKKLSEKPKPNGRTVEVAEGEAVRTPQSVTAKQPPEIDKKNEKSKKNKKKSKSDAKAVQNSSRHDGKEVDEGAWETKISHREKRQQRKRDKVLTDSGSLDSTIPGIENTITVTTEQLTTASFPVGSKKNKGDSHLNVQVSNFKSGKGDSTLQVSSGLNENLTVNGGGWNEKSVKLSSQISAGEEKWNSVSPASAGKRKTEPSAWSQDTGDANTNGKDWGRSWSDRSIFSGIGSTAEPVSQSTTSDYQWDVSRNQPYIDDEWSGLNGLSSADPNSDWNAPAEEWGNWVDEERASLLKSQEPIPDDQKVSDDDKEKGEGALPTGKSKKKKKKKKKQGEDNSTAQDTEELEKEIREDLPVNTSKTRPKQEKAFSLKTISTSDPAEVLVKNSQPIKTLPPATSTEPSVILSKSDSDKSSSQVPPILQETDKSKSNTKQNSVPPSQTKSETSWESPKQIKKKKKARRET
target (unweighted spectral count, OC43 Probe II capture) (24 hpi, type n_24_v): 5
target (unweighted spectral count, OC43 Probe II capture) (36 hpi, type n_36_v): 6
target (unweighted spectral count, OC43 Probe II) (type n_48_v, 48 hpi, OC43 Probe II capture on infected cells): 6
background (unweighted spectral count, no-probe control) (type n_48_v, 48 hpi, no-probe control on infected cells): 1
